From patent US20230348852A1, “METHODS AND COMPOSITIONS FOR OCULAR CELL THERAPY” (NOVARTIS AG, priority 2020, published 2023) come the findings set out here.

What all share (type): cell-based, human
Data set [1] concerns B2M. In words: sgRNA screening for B2M knockout in LSCs (nucleofection, FACS). The note with it: Cas9 protein SEQ ID NO: 106, LSCs at passage 3, FACS after around 3 days.
In data set [2] the test system is beta-2-microglobulin gene. Put plainly: CRISPR/Cas9-mediated deletion of B2M in LSCs (nucleofection, FACS). The note with it: nucleofection with Cas9 protein SEQ ID NO: 107, LSCs at passage 0, FACS. The procedure:
LSCs at passage 0 were trypsinized with TryLE®Express Enzym (ThermoFisher, Cat #12605010) for 15 min in 5%CO2 at 37° C. After scraping the cells, the reaction was stopped by using cell culture medium containing 10% Serum and transferred to a falcon tube. After counting cells using Vi-cell 200′000 cells were prepared per reaction by transferring 200′000 cells in single tubes and centrifuged at 1000 rpm for 5 min.
The supernatant was aspirated using manually pipetting to avoid cell loss and the cells were resuspended in the Stem cell nucleofector solution II (Lonza, Cat #VPH-5022). Resuspend cells in nucleofector solution immediately before adding the Cas9 protein:sgRNA mixture. A stock of 100 µM (3.23 µg/µl) was prepared resuspending 5.1 nanomoles of single-guideRNA (sgRNA) in 51 µl 10 mM Tris buffer pH7.4. […]
In order to prevent cells sticking to the wall, collection tubes were filled with FACS buffer for 30 minutes before the sort and aspirated before adding the collection medium. […] FACS data were analyzed using BD FACSDiva software and FlowJo software.

For data set [3], the system named is B2M. In words: Targeted PCR and NGS (amplicon sequencing) of on-target and off-target sites in genome-edited LSCs. The note with it: for Number of sites positive for off-target activity in LSCs: of the potential off-target loci sequenced; for B2M purified rhAmpSeq indel: purified (B2M negative) LSC populations. How it is done: Potential CRISPR/Cas9-mediated cutting sites identified above were evaluated using targeted PCR and NGS in genome-edited expanded LSCs.
Selected sgRNAs (SEQ ID NO: 120, 162, 166, 167, 171, and 175) were further analyzed by amplicon sequencing in edited and non-edited cells. Primers flanking the potential off-target sites for each guide were used to detect indels by NGS analysis in edited LSCs and non-edited peripheral blood mononuclear cells. Sites that had either (1) a difference in mean indel percentage between edited and unedited cells greater than 0.5%; or (2) a p value less than 0.05 between edited and unedited indel were further analyzed. NGS sequence reads for such sites were assessed for characteristic indel patterns near the putative Cas9 cut site. Based on the results, we could assess the specificity of gRNAs and their suitability for therapeutic applications.

B1: 1-CR004366: gRNA targeting human B2M; targeting domain SEQ ID NO: 108; sgRNA SEQ ID NO: 120; from Dharmacon (nucleic acid)
guide: GAGUAGCGCGAGCACAGCUAGUUUUAGAGCUAGAAAUAGCAAGUUAAAAUAAGGCUAGUCCGUUAUCAACUUGAAAAAGUGGCACCGAGUCGGUGCUUUU
modifications: listed as RNA, chemistry not given here
notes: gRNA targeting human B2M; from Dharmacon
Consider B1, for which the “B2M knockout efficiency in LSCs after nucleofection” value in the data set on B2M [1] stood at 55%. For the same molecule, the “LSCs not expressing B2M and HLA I (HLA A, B and C) on cell surface” value in data set [2] was “about 70%”. The “validated indels for off-target activity in LSCs” value with B2M [3] (amplicon sequencing of potential off-target loci) is “zero”. In addition, in the data set on B2M [3], the “Number of sites positive for off-target activity in LSCs” value is recorded as 0 of 64 and the “B2M purified rhAmpSeq indel” value came to 99.60±0.44%. Besides, in the data set on B2M [3] (listed as SEQ ID NO: 120), the “Number of sites positive for off-target activity in LSCs” value was “no predicted sites tested positive for off-target activity” and the “B2M purified rhAmpSeq indel” value is reported as ~ 99%.
